Data taken from publication PMC5603541.

Test system: BoHV-1 whole virus (purified virion) (Bovine herpesvirus 1 (BK1952, CVCC; Methods also says field isolate from China))
Experiment: ELONA

“GCTGCAATACTCATGGACAGGGCGGCGGGGTGGGGTGGGCGGTTTGATTCCCATGGGTGCGTCTGGAGTACGACCCTGAA [IBRV-A4]” showed a Kd of 3.52 nM.
